Data reported in the RNAGym collection of RNA variant scans (doi:10.1021/acssynbio.7b00057).

B1: Pistol ribozyme (parent)
chain: GGGUCGUUGUUCCAUAAUCGCGUGGAUAUGGCACGCAAGUUUCUACCGGGCACCGUAAAUGUCCGACUGGAGCCGUUCGGGCGGCUAUAAACAGACCUCAGGCCCGAAGCGUGGCGGCACCUGCCGCCGGUGGUAAAAAAGAUCGGAAGAGCACACGUCU

Variants of: B1
Assay: aptazyme ON/OFF ratio, guanine; higher = stronger switching; co-transcriptional cleavage with and without guanine
For U8C G9C U10G U11G C13U, the “aptazyme ON/OFF ratio” value was 1.07. With U8C G9C U10G U11G C13G the “aptazyme ON/OFF ratio” value was 1.11. With U8C G9C U10G C12G the “aptazyme ON/OFF ratio” value was 1.19. With U8C G9C U10G C12U the “aptazyme ON/OFF ratio” value was 1.12. With U8C G9C U10G C12A the “aptazyme ON/OFF ratio” value was 1.2. With U8C G9A U10G U11G C13U the “aptazyme ON/OFF ratio” value was 1.09. With U8C G9A U10G U11G C13A the “aptazyme ON/OFF ratio” value was 1.15. For U8C G9A U10G U11G C13G, the “aptazyme ON/OFF ratio” value was 1.13. For U8C G9C U10C U11G C12A C13A, the “aptazyme ON/OFF ratio” value was 1.2. With U8C G9C U10C U11G C12A C13U the “aptazyme ON/OFF ratio” value was 1.15. For U8C G9C U10C U11G C12A C13G, the “aptazyme ON/OFF ratio” value was 1.16. In the case of U8C G9C U10A C12A C13U, the “aptazyme ON/OFF ratio” value is reported as 1.11. With U8C G9C U10A C12A C13G the “aptazyme ON/OFF ratio” value was 1.15. In the case of U8C G9C U10A C12A C13A, the “aptazyme ON/OFF ratio” value is reported as 1.09. For U8C G9C U10G U11A C12A, the “aptazyme ON/OFF ratio” value was 1.21. In the case of U8C G9C U10G U11A C12U, the “aptazyme ON/OFF ratio” value is reported as 1.02. For U8C G9C U10G U11A C12G, the “aptazyme ON/OFF ratio” value was 1.26. For U8C G9C U10G U11C C12G C13G, the “aptazyme ON/OFF ratio” value was 1.18. With U8C G9C U10G U11C C12G C13A the “aptazyme ON/OFF ratio” value was 1.14. With U8C G9C U10G U11C C12G C13U the “aptazyme ON/OFF ratio” value was 1.17. In the case of U8C G9A U10G U11A C13A, the “aptazyme ON/OFF ratio” value is reported as 1.03. For U8C G9A U10G U11A C13U, the “aptazyme ON/OFF ratio” value was 1.02. In the case of U8C G9A U10G U11A C13G, the “aptazyme ON/OFF ratio” value is reported as 1.04. With U8C G9C U10G C13G the “aptazyme ON/OFF ratio” value was 1.19. With U8C G9C U10G C13U the “aptazyme ON/OFF ratio” value was 1.11. For U8C G9C U10G C13A, the “aptazyme ON/OFF ratio” value was 1.1. For U8C G9C U10C C12A C13U, the “aptazyme ON/OFF ratio” value was 1.03. With U8C G9C U10C C12A C13A the “aptazyme ON/OFF ratio” value was 1. For U8C G9C U10C C12A C13G, the “aptazyme ON/OFF ratio” value was 1.08. For U8C G9C U10G U11A C12A C13A, the “aptazyme ON/OFF ratio” value was 1.16. With U8C G9C U10G U11A C12A C13U the “aptazyme ON/OFF ratio” value was 1.1. For U8C G9C U10G U11A C12A C13G, the “aptazyme ON/OFF ratio” value was 1.1. In the case of U8C G9C U11A C12G C13G, the “aptazyme ON/OFF ratio” value is reported as 1.15. In the case of U8C G9C U11A C12G C13A, the “aptazyme ON/OFF ratio” value is reported as 1.17. For U8C G9C U11A C12G C13U, the “aptazyme ON/OFF ratio” value was 1.07. In the case of U8C G9A U11C C12U C13A, the “aptazyme ON/OFF ratio” value is reported as 1.16. With U8C G9A U11C C12U C13U the “aptazyme ON/OFF ratio” value was 1.22. With U8C G9A U11C C12U C13G the “aptazyme ON/OFF ratio” value was 1.08. With U8C G9C U10C U11C C12U C13A the “aptazyme ON/OFF ratio” value was 1.05. With U8C G9C U10C U11C C12U C13G the “aptazyme ON/OFF ratio” value was 1. For U8C G9C U10C U11C C12U C13U, the “aptazyme ON/OFF ratio” value was 1.01. With U8C G9C U10A U11G C12G C13U the “aptazyme ON/OFF ratio” value was 1.09. For U8C G9C U10A U11G C12G C13G, the “aptazyme ON/OFF ratio” value was 1.11. With U8C G9C U10A U11G C12G C13A the “aptazyme ON/OFF ratio” value was 1.19. For U8C G9A U11G C12U, the “aptazyme ON/OFF ratio” value was 1.29. For U8C G9A U11G C12G, the “aptazyme ON/OFF ratio” value was 1.3. In the case of U8C G9A U11G C12A, the “aptazyme ON/OFF ratio” value is reported as 1.06. For U8C G9C U10G U11A C13A, the “aptazyme ON/OFF ratio” value was 1.13. For U8C G9C U10G U11A C13G, the “aptazyme ON/OFF ratio” value was 1.19. For U8C G9C U10G U11A C13U, the “aptazyme ON/OFF ratio” value was 1.06. In the case of U8C G9A U10G U11A C12A C13U, the “aptazyme ON/OFF ratio” value is reported as 1.15. For U8C G9A U10G U11A C12A C13G, the “aptazyme ON/OFF ratio” value was 1.12. With U8C G9A U10G U11A C12A C13A the “aptazyme ON/OFF ratio” value was 1.14. In the case of U8C G9C U10C U11A C13G, the “aptazyme ON/OFF ratio” value is reported as 1.08. With U8C G9C U10C U11A C13U the “aptazyme ON/OFF ratio” value was 1.04. With U8C G9C U10C U11A C13A the “aptazyme ON/OFF ratio” value was 1.01. In the case of U8C G9A U10G U11A C12U, the “aptazyme ON/OFF ratio” value is reported as 1.04. For U8C G9A U10G U11A C12A, the “aptazyme ON/OFF ratio” value was 1.19. For U8C G9A U10G U11A C12G, the “aptazyme ON/OFF ratio” value was 1.14. For U8C G9C U10A U11G C12U, the “aptazyme ON/OFF ratio” value was 1.22. In the case of U8C G9C U10A U11G C12A, the “aptazyme ON/OFF ratio” value is reported as 1.07. With U8C G9C U10A U11G C12G the “aptazyme ON/OFF ratio” value was 1.32. For U8C G9C U10A C12G C13U, the “aptazyme ON/OFF ratio” value was 1.2. With U8C G9C U10A C12G C13G the “aptazyme ON/OFF ratio” value was 1.15. With U8C G9C U10A C12G C13A the “aptazyme ON/OFF ratio” value was 1.2. For U8C G9C U10G C12G C13A, the “aptazyme ON/OFF ratio” value was 1.08. For U8C G9C U10G C12G C13G, the “aptazyme ON/OFF ratio” value was 1.09. With U8C G9C U10G C12G C13U the “aptazyme ON/OFF ratio” value was 1.09. In the case of U8C G9A U11G C13G, the “aptazyme ON/OFF ratio” value is reported as 1.27. With U8C G9A U11G C13U the “aptazyme ON/OFF ratio” value was 1.15. In the case of U8C G9A U11G C13A, the “aptazyme ON/OFF ratio” value is reported as 1.23. In the case of U8C G9C U10G U11C C12A C13G, the “aptazyme ON/OFF ratio” value is reported as 1.14. For U8C G9C U10G U11C C12A C13A, the “aptazyme ON/OFF ratio” value was 1.19. With U8C G9C U10G U11C C12A C13U the “aptazyme ON/OFF ratio” value was 1.13. With U8C G9C U10A U11G C13G the “aptazyme ON/OFF ratio” value was 1.2. For U8C G9C U10A U11G C13U, the “aptazyme ON/OFF ratio” value was 1.13. With U8C G9C U10A U11G C13A the “aptazyme ON/OFF ratio” value was 1.2. In the case of U8C G9A U10G C12U C13A, the “aptazyme ON/OFF ratio” value is reported as 1.19. With U8C G9A U10G C12U C13U the “aptazyme ON/OFF ratio” value was 1.54. With U8C G9A U10G C12U C13G the “aptazyme ON/OFF ratio” value was 1.2. In the case of U8C G9C U10C U11A C12U C13U, the “aptazyme ON/OFF ratio” value is reported as 1.01. With U8C G9C U10C U11A C12U C13A the “aptazyme ON/OFF ratio” value was 1.02. In the case of U8C G9C U10C U11A C12U C13G, the “aptazyme ON/OFF ratio” value is reported as 1.02. In the case of U8C G9C, the “aptazyme ON/OFF ratio” value is reported as 1.12.
